For assay [1], the target named is VPS29 (short isoform, N-terminal sequence MLVL), untagged (UniProt Q9UBQ0-1 1-182). The experiment in a line: SPR; Biacore T200; GST fusion captured on goat anti-GST antibody coupled to a CM5 chip, GST-CLA on the blank flow cell; VPS29 as analyte, typically 40 to 0.3 μM; 20 mM Tris, 200 mM NaCl, 0.1 mM TCEP, 0.5 μM ZnCl2, pH 7.4; 12 °C for the KD of 2–3 µM; equilibrium and kinetic analysis, single site. The conditions noted are these: both partners purified. (In SPR one partner is held on a chip, and binding of the other changes the refractive index at the surface.)

Assay [2] deals with long VPS29 (isoform with the N-terminal sequence …) (UniProt Q9UBQ0-2 1-186). The assay is described as above. The settings on record: both partners purified.

These results are taken from PMC7539009, “Mechanism and evolution of the Zn-fingernail required for interaction of VARP with VPS29” (Nature Communications, 2020).

Some results are limits rather than exact numbers.

Broadly, the Kd is the constant that tells how readily two partners part at equilibrium.

B1: GST-TBC1D5 (residues 132–156) (domain or fragment)
chain: GQQDLMINNPLSQDEGSLWNKFFQD
notes: TBC1D5 residues 132-156, holds the Asn Pro Leu motif and the short helix upstream of it; also called TBC1D5 (132–156); not shown: GST, N-terminal, kept
With B1, the Kd in assay [1] is over 300 µM; in assay [2] it was about 67 µM.

B2: GST-VARP residues 692-746, 4C mutant (all four Cys to Ser) (domain or fragment)
chain: TEEDLEDAEDTVSAADPEFSHPLSQSPKSAPAQKRLAKVPASGLGVNVTSQDGSSW
notes: non-native Trp residue numbered 747; source: E. coli BL21 (DE3) pLysS, pGEX6P1, purified (GST-Sepharose, S75 Superdex gel filtration); not shown: GST, N-terminal, kept
The molecule B2 came in with a dissociation constant Kd in assay [1] of 55 µM.
